Data set [1] addresses T1, Nuclease K D582R/I53R/T734R (D582R,I53R,T734R).
T1 chain: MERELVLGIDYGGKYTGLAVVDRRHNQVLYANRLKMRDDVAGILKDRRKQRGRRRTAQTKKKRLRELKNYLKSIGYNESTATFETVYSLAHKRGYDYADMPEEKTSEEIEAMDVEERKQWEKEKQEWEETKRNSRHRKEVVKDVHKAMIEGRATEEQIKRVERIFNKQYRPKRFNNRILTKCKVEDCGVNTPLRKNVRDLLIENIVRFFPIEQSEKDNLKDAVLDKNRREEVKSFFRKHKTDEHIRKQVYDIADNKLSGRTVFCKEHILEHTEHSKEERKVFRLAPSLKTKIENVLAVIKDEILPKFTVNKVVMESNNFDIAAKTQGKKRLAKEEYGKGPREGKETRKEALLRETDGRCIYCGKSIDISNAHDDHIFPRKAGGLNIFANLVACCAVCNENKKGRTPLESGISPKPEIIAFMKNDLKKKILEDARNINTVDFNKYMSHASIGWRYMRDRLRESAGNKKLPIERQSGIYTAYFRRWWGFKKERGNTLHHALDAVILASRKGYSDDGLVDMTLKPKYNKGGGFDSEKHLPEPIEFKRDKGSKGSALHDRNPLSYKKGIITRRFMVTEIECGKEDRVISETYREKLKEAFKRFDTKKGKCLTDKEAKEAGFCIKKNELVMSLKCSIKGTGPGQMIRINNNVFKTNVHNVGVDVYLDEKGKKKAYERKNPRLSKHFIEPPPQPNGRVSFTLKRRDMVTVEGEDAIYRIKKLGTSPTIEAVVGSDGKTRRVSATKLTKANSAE
In words: cell_activity; PAM NGG; HEK293T. To be noted: tags: N- and C-terminal NLS. How it is done:
(§1) This Example describes indel assessment on mammalian targets using nuclease variants of Nuclease K comprising two or more substitutions identified as increasing indel activity in Example 8. 71 combination Nuclease K variants were tested.
(§2) Each Nuclease K variant and RNA guide (see Table 19) was cloned as described in Example 8. HEK293T cells were further transfected, followed by NGS analysis, as described in Example 8. For each target, indel ratios, referring to the percentage of NGS reads comprising indels, were calculated for the reference Nuclease K (SEQ ID NO: 65) and for each Nuclease K variant. The indel ratios shown in Table 20 were calculated as the average of two bioreplicates, each of which contained two technical replicates.

A further data set addresses T2, Nuclease K D582R/G42R (D582R,G42R).
T2 chain: T1 chain with G42R, R53I, R734T
Description: cell_activity; PAM NGG; HEK293T. To be noted: tags: N- and C-terminal NLS. The procedure: as §1, §2

The target in a further data set is T3, Nuclease K.
T3 chain: T1 chain with R53I, R582D, R734T
In words: cell_activity; PAM NGG (AGG); HEK293T. To be noted: tags: N-terminal SV40 NLS, C-terminal nucleoplasmin NLS.

The target of a further data set is T4, Nuclease A.
T4 chain: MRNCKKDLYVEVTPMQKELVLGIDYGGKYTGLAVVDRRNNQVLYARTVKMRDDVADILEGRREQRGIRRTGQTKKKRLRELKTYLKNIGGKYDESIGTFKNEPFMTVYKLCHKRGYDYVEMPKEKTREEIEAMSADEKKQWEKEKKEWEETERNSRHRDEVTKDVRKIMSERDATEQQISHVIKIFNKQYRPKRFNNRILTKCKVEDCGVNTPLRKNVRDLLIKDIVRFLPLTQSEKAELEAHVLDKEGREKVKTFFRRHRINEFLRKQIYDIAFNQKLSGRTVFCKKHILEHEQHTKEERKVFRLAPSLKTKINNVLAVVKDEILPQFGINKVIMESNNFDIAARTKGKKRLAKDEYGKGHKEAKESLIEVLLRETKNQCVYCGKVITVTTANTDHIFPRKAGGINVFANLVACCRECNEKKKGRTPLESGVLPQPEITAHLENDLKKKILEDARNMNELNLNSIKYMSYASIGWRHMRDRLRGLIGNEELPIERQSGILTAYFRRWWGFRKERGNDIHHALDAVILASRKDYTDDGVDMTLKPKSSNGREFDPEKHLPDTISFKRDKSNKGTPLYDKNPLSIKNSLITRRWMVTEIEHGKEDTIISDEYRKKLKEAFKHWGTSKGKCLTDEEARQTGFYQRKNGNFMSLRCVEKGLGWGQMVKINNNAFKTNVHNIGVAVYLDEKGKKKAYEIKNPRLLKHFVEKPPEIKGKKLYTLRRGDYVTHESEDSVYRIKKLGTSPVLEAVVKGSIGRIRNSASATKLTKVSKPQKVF
Description: cell_activity; PAM NGG (GGG); HEK293T. Particulars: tags: N-terminal SV40 NLS, C-terminal XTEN linker + nucleoplasmin NLS. How it is done: (§3) Approximately 16 hours prior to transfection, 25,000 HEK293T cells in DMEM/10% FBS+Pen/Strep (D10 media) were plated into each well of a 96-well plate. On the day of transfection, the cells were 50-90% confluent. For each well to be transfected, a mixture of Lipofectamine 2000™ (ThermoFisher Scientific) and Opti-MEM™ (ThermoFisher Scientific) was prepared and incubated at room temperature for 5 minutes (Solution 1). After incubation, the Lipofectamine 2000™: Opti-MEM™ mixture was added to a separate mixture containing the CRISPR nuclease plasmid (NLS-tagged), RNA guide plasmid, and Opti-MEM™ (Solution 2). In the case of negative controls, the CRISPR nuclease plasmid was excluded. Solutions 1 and 2 were mixed by pipetting up and down, then incubated at room temperature for 25 minutes. Following incubation, the Solution 1 and 2 mixture was added dropwise to each well of a 96-well plate containing the cells. […]
(§4) Each Nuclease A variant and RNA guide (see Table 5) was cloned as described in Example 2. […] For each target, indel ratios, referring to the percentage of NGS reads comprising indels, were calculated for Nuclease A (SEQ ID NO: 1) and for each variant of Nuclease A. The indel ratios shown in Table 6 were calculated as the average of two bioreplicates, each of which contained two technical replicates.

The target in data set [2] is T5, Nuclease A I67R/D568R/E706R.
T5 chain: T4 chain with I67R, D568R, E706R
Description: cell_activity; PAM NGG (GGG); HEK293T. To be noted: tags: N-terminal SV40 NLS, C-terminal XTEN linker + nucleoplasmin NLS. How it is done:
as §3, §4

Residue numbers refer to the chain shown, from its start.

B1: Nuclease K VEGFA-T6 guide ; VEGFA-T6 target (ssRNA ; dsDNA)
RNA: UUUGCCCAUACUGGGGACCAGUUACAGUUAAGGCUCUGAAAAGAGCCUUAAUUGUAAAACGCCUAUACAGUGAAGGGAUAUACGCUUGGGUUUGUCCAGCCUGAGCCUCUAUGCCAGAAAUGGCGCCUUCAUCGUGGGUUAGGACAUUUAAAUUUAAAAACUAUUCAGCACUGUUUGCUCUUGUCAGCUUGGUGGCAGA
DNA 1: TTTGCCCATACTGGGGACCA
DNA 2: TGGTCCCCAGTATGGGCAAA
Take B1: the values for the activity (in data set [1]; in the data set with Nuclease K D582R/G42R; in the data set with Nuclease K) were 0.097 indel ratio, 0.153 indel ratio and 0.009 indel ratio, respectively.

B2: Nuclease A EMX1-T7 guide ; EMX1-T7 target (ssRNA ; dsDNA)
RNA: CUUUAGCAAGGGACUAUUCAGUUACAGUUAAGGCUCUUUGGAAACAAAGAAGCCUUAAUUGUAAAACGCCUAUAUGGUAAAGUGAUGUACGUUUGGGUAUAUAUCGCCAGCCUGAACCUCUACGCCAGAAAUGGCAGCUUUAUCAUGGGUUAGGACGAUAUUUAAAAAACUUUCUGCGGCUUGCUUACUUUAGUAAGCUUUGUGGCUGAGGCAGAAUUCCUU
DNA 1: CTTTAGCAAGGGACTATTCA
DNA 2: TGAATAGTCCCTTGCTAAAG
For B2, the values for the activity (with Nuclease A; in data set [2]) were 0.033 indel ratio and 0.337 indel ratio, respectively.

For the origin of these results see patent US20260275311, “CRISPR NUCLEASE POLYPEPTIDES AND GENE EDITING SYSTEMS COMPRISING SUCH” (ARBOR BIOTECHNOLOGIES, INC., published 2026).
